# Substitutions are numbered along the chain they refer to. Numbers in names are those of the source. Where a SMILES comes first, the peptide text is derived from it. Where no end group is shown, it is not given here. [ ]: non-standard residue; d: D form. The star is where a group is joined. Myristoyl = CCCCCCCCCCCCCC(=O)*; pS = N[C@@H](COP(=O)(O)O)C(=O)O
# B1: F93A: GSK-3β mutant, F93 replaced by alanine, SEQ ID NO:9 (protein)
# chain: MSGRPRTTSFAESCKPVQQPSAFGSMKVSRDKDGSKVTTVVATPGQGPDRPQEVSYTDTKVIGNGSFGVVYQAKLCDSGELVAIKKVLQDKRAKNRELQIMRKLDHCNIVRLRYFFYSSGEKKDEVYLNLVLDYVPETVYRVARHYSRAKQTLPVIYVKLYMYQLFRSLAYIHSFGICHRDIKPQNLLLDPDTAVLKLCDFGSAKQLVRGEPNVSYICSRYYRAPELIFGATDYTSSIDVWSAGCVLAELLLGQPIFPGDSGVDQLVEIIKVLGTPTREQIREMNPNYTEFKFPQIKAHPWTKDSSGTGHFTSGVRVFRPRTPPEAIALCSRLLEYTPTARLTPLEACAHSFFDELRDPNVKLPNGRDTPALFNFTTQELSSNPPLATILIPPHARIQAAASTPTNATAASDANTGDRGQTNNAASASASNST
# modifications: GSK-3 beta, F93A mutant
# B2: R92A: GSK-3β mutant, R92 replaced by alanine, SEQ ID NO:8 (protein)
# chain: B1 chain with R92A, A93F
# modifications: GSK-3 beta, R92A mutant
# B3: K94A: GSK-3β mutant, K94 replaced by alanine, SEQ ID NO:10 (protein)
# chain: B1 chain with A93F, K94A
# modifications: GSK-3 beta, K94A mutant
# B4: D90A: GSK-3β mutant, D90 replaced by alanine, SEQ ID NO:6 (protein)
# chain: B1 chain with D90A, A93F
# modifications: GSK-3 beta, D90A mutant
# B5: K91A: GSK-3β mutant, K91 replaced by alanine, SEQ ID NO:7 (protein)
# chain: B1 chain with K91A, A93F
# modifications: GSK-3 beta, K91A mutant
# Experiments:
# [1] = target: T1, GSK-3β (Homo sapiens, UniProt P49841); test: In vitro kinase assay with GSK-3β in the presence of peptide inhibitor; format: biochemical; details: for Inhibition of WT-GSK-3β compared with L803: 250 μM each, FIGS. 3B, 3C
# T1 construct: made in house; host or cells: HEK-293 (transient transfection, pCMV4 vector; DE-52 partial purification)
# Protocol: (§1) (0.5 μCi/assay) for 15 minutes.
# The ability of each peptide to inhibit GSK-3β was then determined by in vitro kinase assays as described hereinabove.
# [2] = target: T2, F93A mutant GSK-3β (Homo sapiens, UniProt P49841, F93A); test: In vitro kinase assay with F93A mutant in presence or absence of inhibitor; format: biochemical; details: FIGS. 2B, 2C
# T2 construct: made in house; host or cells: HEK-293 (transient transfection, pCMV4 vector; DE-52 partial purification)
# Text: (§2) GSK-3β in the pCMV4 vector was used as the template for mutagenesis. Mutations were generated using QuickChange Site Directed Mutagenesis Kit (Stratagene, La Jolla, Calif., USA) according the manufacturer's protocols. Mutations included replacement of D90, K91, R92, F93, K94, V214 to alanine, F93 to tyrosine, and a triple mutation at residues 91-93. All constructs were sequenced to confirm the presence of desired mutations. The sequences of mutagenic oligonucleotides are available from the inventors upon request.
# (§3) HEK-293 cells were grown in Dulbecco's Modified Eagle's Medium (DMEM), supplemented with 10% fetal calf serum (FCS), 2 mM glutamine, 100 units/ml penicillin, and 100 μg/ml streptomycin. HEK-293 cells were transiently transfected with indicated constructs, using calcium phosphate method as described [Ilouz et al. (2006) supra]. Cells were lysed in ice-cold buffer G (20 mM Tris-HCl, pH 7.5, 10 mM β-glycerophosphate, 10% glycerol, 1 mM EGTA, 1 mM EDTA, 50 mM NaF, 5 mM sodium pyrophosphate, 0.5 mM orthovanadate, 1 mM benzamidine, 10 μg/ml leupeptin, 5 μg/ml aprotinin, 1 μg/ml pepstatin, and 0.5% Triton X100). Cell extracts were centrifuged for 30 minutes at 15,000×g. […] In all experiments, GSK-3 mutants were expressed at levels at least 5-fold higher than levels of the endogenous GSK-3β as determined by western blot analysis. […]
# [3] = tested on: GSK-3β mutants Q89A, N95A, R92A, K94A and F93Y; test: In vitro kinase assay with other GSK-3β mutants in presence or absence of inhibitor; format: biochemical, human; details: data not shown
# Text: as §2, §3
# [4] = tested on: β-catenin; test: Hippocampus β-catenin levels in mice after nasal administration; format: in vivo, C57BL/6J mice; details: 60 μg peptide/mouse/day, 3 days, vs non-treated
# Protocol: C57BL/6J mice (12 week old; obtained from Animal Facilities at Tel Aviv University) were treated with L803-mts or L806-mts via a nasal administration (60 μg peptide/per mouse/per day) for 3 days. Non-treated animals served as control. Brains were removed and hippocampus was homogenized in ice-cold ‘buffer G’(20 mM Tris pH 7.5, 10 mM β-glycerophosphate, 10% glycerol, 1 mM EGTA, 1 mM EDTA, 50 mM NaF, 5 mM sodium pyrophosphate, 0.5 mM orthovanadate, 1 mM benzamidine, 5 μg/ml leupeptin, 25 μg/ml aprotinin, 5 μg/ml pepstatin, and 0.5% Triton X100). Equal amounts of proteins (50 μg) were subjected to gel electrophoresis, transferred to nitrocellulose membranes, and immunoblotted with anti-β-catenin antibody. Hippocampus β-catenin levels were determined by western blot analysis as described.
# [5] = tested on: β-catenin; test: β-catenin levels in COS-7 cells, Western blot; format: cell-based; details: various concentrations, 5 hour, FIG. 6B
# Protocol: In further studies, COS-7 cells were treated with L806-mts at various concentrations for 5 hour.
# [6] = tested on: heat shock factor-1 (HSF-1); test: Phosphorylation of HSF-1 in COS-7 cells, Western blot; format: cell-based; details: FIG. 6C
# Protocol: L806-mts-treated COS-7 cells were also tested for phosphorylation of the GSK-3 substrate heat shock factor-1 (HSF-1).
# [7] = tested on: CREB (Ser 129) and N′IRS-1 (Ser 332); test: Phosphorylation of CREB and N'IRS-1 in HEK-293 cells expressing GSK-3β proteins; format: cell-based; details: forskolin or PMA treated, compared with WT-GSK-3β
# Protocol: The role of Phe 93 in substrate binding by employing a cellular system and protein substrates (i.e., not peptides) was further explored. To this end, the WT-GSK-3β and F93A mutant were expressed in HEK-293 cells together with GSK-3 substrates CREB or N′IRS-1 (the N-terminal region of IRS-1). Because GSK-3 requires pre-phosphorylation of its substrates, the cells were treated with forskolin to enhance CREB phosphorylation via activation of cAMP dependent kinase (PKA), or with phorbol ester (PMA) to enhance N′IRS-1 phosphorylation via activation of protein kinase C (PKC). The phosphorylation of CREB at serine 129, and N′IRS-1 at serine 332 (both GSK-3 phosphorylation sites) was then examined.
# Thus, HEK293 cells were co-transfected with WT-GSK-3β or F93A plasmids together with construct coding for CREB. Cells were treated with forskolin (10 μM, 1 hour), and cell extracts were subjected to western blot analysis using anti-phospho CREB (Ser 129/133) antibody, as presented in FIG. 1D. Expression levels of CREB and GSK-3 proteins are indicated.
# Similar assay was conducted using N′IRS-1 cDNA construct instead of CREB, and cells were treated with PMA (100 nM, 30 minutes). Expression levels of N′IRS-1 and GSK-3β are indicated. Results are means of three independent experiments±SEM.
# [8] = tested on: p9CREB; test: In vitro kinase assay of GSK-3β mutants, substrate p9CREB; format: biochemical; details: WT set to 100%; mean of 2-3 experiments ± SEM
# Protocol: (§4) HEK-293 cells were grown in Dulbecco's Modified Eagle's Medium (DMEM), supplemented with 10% fetal calf serum (FCS), 2 mM glutamine, 100 units/ml penicillin, and 100 μg/ml streptomycin. HEK-293 cells were transiently transfected with indicated constructs, using calcium phosphate method as described [Ilouz et al. (2006) supra]. Cells were lysed in ice-cold buffer G (20 mM Tris-HCl, pH 7.5, 10 mM β-glycerophosphate, 10% glycerol, 1 mM EGTA, 1 mM EDTA, 50 mM NaF, 5 mM sodium pyrophosphate, 0.5 mM orthovanadate, 1 mM benzamidine, 10 μg/ml leupeptin, 5 μg/ml aprotinin, 1 μg/ml pepstatin, and 0.5% Triton X100). Cell extracts were centrifuged for 30 minutes at 15,000×g. Supernatants were collected, and equal amounts of proteins were boiled with SDS sample buffer and subjected to gel electrophoresis (7.5-12% polyacrylamide gel), transferred to nitrocellulose membranes, and immunoblotted with indicated antibodies. For partial purification, cells were lysed in buffer H (20 mM Tris, pH 7.3, 1 mM EGTA, 1 mM EDTA, 1 mM orthovanadate, 25 μg/ml leupeptin, 25 μg/ml aprotinin, and 25 μg/ml pepstatin A, 500 nM microcystine LR, and 0.25% Triton X100). The lysates were centrifuged at 15,000×g. The resulting supernatants were passed through DE-52 (Whatman, Maidstone, England) mini-columns that were equilibrated with buffer H. GSK-3β proteins were eluted with the same buffer containing 0.02 M NaCl. Equal amounts of proteins were used for in vitro kinase assays. In all experiments, GSK-3 mutants were expressed at levels at least 5-fold higher than levels of the endogenous GSK-3β as determined by western blot analysis.
# as §1
# (§5) The GSK-3β mutants were partially purified by ion exchange chromatography, and their abilities to phosphorylate peptide substrates were tested in in vitro kinase assays. The substrates were: pIRS-1, p9CREB, and pGS-1, phosphorylated peptides derived from the insulin receptor substrate-1 (IRS-1), cAMP responsive element binding protein (CREB), and glycogen synthase, respectively.
# (§6) The results are presented in Table 1, as the percentage of substrate phosphorylation (indicated peptides, pIRS-1, p9CREB and pGS-1) obtained with WTGSK-3β which was set to 100%, and are mean of 2-3 independent experiments each performed in duplicates±SEM.
# [9] = tested on: pIRS-1; test: In vitro kinase assay of GSK-3β mutants, substrate pIRS-1; format: biochemical; details: WT set to 100%; mean of 2-3 experiments ± SEM
# Protocol: as §4, §1, §5, §6
# [10] = tested on: pGS-1; test: In vitro kinase assay of GSK-3β mutants, substrate pGS-1; format: biochemical; details: WT set to 100%; mean of 2-3 experiments ± SEM
# Protocol: as §4, §1, §5, §6
# T1 sequence (P49841 1-433 isoform P49841-2): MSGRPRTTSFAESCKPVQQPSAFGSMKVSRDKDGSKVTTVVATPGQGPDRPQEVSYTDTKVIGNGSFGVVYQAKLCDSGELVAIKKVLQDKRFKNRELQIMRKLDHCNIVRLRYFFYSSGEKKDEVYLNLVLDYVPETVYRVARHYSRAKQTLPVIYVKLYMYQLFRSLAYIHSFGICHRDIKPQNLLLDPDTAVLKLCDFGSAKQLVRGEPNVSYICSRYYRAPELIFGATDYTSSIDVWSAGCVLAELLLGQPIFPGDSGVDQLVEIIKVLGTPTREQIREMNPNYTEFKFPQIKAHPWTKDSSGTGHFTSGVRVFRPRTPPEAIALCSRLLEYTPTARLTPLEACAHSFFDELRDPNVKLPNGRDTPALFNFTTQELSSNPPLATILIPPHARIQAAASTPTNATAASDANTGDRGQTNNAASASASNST
Molecule,"Substrate phosphorylation (% of WTGSK-3β), p9CREB [8]","Substrate phosphorylation (% of WTGSK-3β), pIRS-1 [9]","Substrate phosphorylation (% of WTGSK-3β), pGS-1 [10]",other results
"PQ9Y: L803 variant, Gln 9 replaced with tyrosine, SEQ ID NO:15 (KEAPPAPPYSP; PQ9Y synthetic peptide)",,,,Inhibition of WT-GSK-3β compared with L803 [1]: non-inhibitory
"L803-mts: L803 in which myristic acid was attached to its N-terminal, cell permeable, SEQ ID NO:5 (Myristoyl-GKEAPPAPPQSP; not fully specified (residue 11))",,,,"Competition with substrates pIRS-1, p9CREB, pGS-1 ([1]; purified GSK-3β, 100 μM, FIG. 2A): competes with various substrates; Inhibition of F93A mutated enzyme [2]: did not inhibit; Inhibition of other GSK-3β mutants [3]: able to inhibit all other mutants"
CCCCCCCCCCCCCC(=O)NCC(=O)N[C@@H](CCCCN)C(=O)N[C@@H](CCC(=O)O)C(=O)N[C@@H](C)C(=O)N1CCC[C@H]1C(=O)N1CCC[C@H]1C(=O)N[C@@H](C)C(=O)N1CCC[C@H]1C(=O)N1CCC[C@H]1C(=O)N1CCC[C@H]1C(=O)N[C@@H](COP(=O)(O)O)C(=O)N1CCC[C@H]1C(=O)O [L806-mts] (Myristoyl-GKEAPPAPPP[pS]P-OH; C-terminus assumed),,,,IC50 [1]: ~1 µM; Hippocampus β-catenin levels [4]: elevation in β-catenin levels; Levels of β-catenin [5]: Elevation of β-catenin; Phosphorylation of HSF-1 [6]: Reduced phosphorylation
Lys-Glu-Ala-Pro-Pro-Ala-Pro-Pro-Ala-phosphorylated Ser-Pro [PQ9A],,,,"Increase of inhibition relative to L803 ([1]; 250 μM, FIG. 3B): about two-fold"
"PQ9R: L803 variant, Gln 9 replaced with arginine, SEQ ID NO:14 (KEAPPAPPRSP; PQ9R synthetic peptide)",,,,Inhibition of WT-GSK-3β compared with L803 [1]: non-inhibitory
Lys-Glu-Ala-Pro-Pro-Ala-Pro-Pro-Pro-phosphorylated Ser-Pro [PQ9P],,,,"Inhibition activity, dose-response comparative plots ([1]; L803, PQ9A and PQ9P compared, FIG. 5): enhanced inhibition activity"
KEAPPAPPQS(p)P (KEAPPAPPQ[pS]P) [L803],,,,Inhibition of F93A mutated enzyme [2]: did not inhibit; Inhibition of other GSK-3β mutants [3]: inhibited all other mutants
Lys-Ala-Ala-Pro-Pro-Ala-Pro-Pro-Gln-phosphorylated Ser-Pro [PE2A],,,,Inhibition of WT-GSK-3β compared with L803 [1]: slightly impaired
B1,46 ± 2 % of WTGSK-3β,42 ± 13 % of WTGSK-3β,13 ± 7 % of WTGSK-3β,Phosphorylation of CREB and N′IRS-1 in cells [7]: did not enhance the phosphorylation
B2,49 ± 19 % of WTGSK-3β,60 ± 3 % of WTGSK-3β,41 ± 14 % of WTGSK-3β,
B3,71 ± 4 % of WTGSK-3β,52 ± 19 % of WTGSK-3β,19 ± 14 % of WTGSK-3β,
B4,92 ± 21 % of WTGSK-3β,88 ± 15 % of WTGSK-3β,83 ± 2 % of WTGSK-3β,
B5,161 ± 5 % of WTGSK-3β,140 ± 18 % of WTGSK-3β,119 ± 5 % of WTGSK-3β,

# — patent publication US9243034B2, “Glycogen synthase kinase-3 inhibitors” (Ramot at Tel-Aviv University Ltd., priority 2011, dated 2016)
